# Measured values reported in paper PMC7188823, “The BRCA2-MEILB2-BRME1 complex governs meiotic recombination and impairs the mitotic BRCA2-RAD51 function in cancer cells” (Nature Communications, 2020).
# T1: MEILB2 C-terminus (a.a. 87–338) (Mus musculus (Mouse), UniProt Q9D4G2)
# T1 chain: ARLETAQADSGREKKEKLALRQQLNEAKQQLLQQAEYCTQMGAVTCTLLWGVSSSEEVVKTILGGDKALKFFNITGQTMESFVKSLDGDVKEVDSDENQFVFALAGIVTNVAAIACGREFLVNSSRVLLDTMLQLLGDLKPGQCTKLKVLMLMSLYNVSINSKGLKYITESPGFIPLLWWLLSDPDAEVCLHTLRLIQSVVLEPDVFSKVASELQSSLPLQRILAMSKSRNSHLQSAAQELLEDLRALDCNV
# B1: MEILB2 C-terminus (a.a. 87–338) (domain or fragment, mouse, UniProt Q9D4G2 87-338, looked up)
# chain: T1 chain
# notes: MEILB2/HSF2BP, mouse, a.a; 87-338 (27.9 kDa in theory); pET-Duet for the co-expression, pSmt3 for the protein alone; also called mMEILB2 a.a; 87–338; source: E. coli BL21(DE3), purified (Ni-NTA, Ulp1 cleavage, cation exchange, size-exclusion chromatography); expressed alone or co-expressed with BRCA2 (a.a. 2219–2285); not shown: 10x His-Smt3, N-terminal, cleaved
# B2: BRCA2-MBD fragment (a.a. 2219–2285) (domain or fragment, mouse, UniProt P97929 2219-2285, looked up)
# chain: KRGGVTVDAVGQPPIKRSLLNEFDRIIESKGKSLTPSKSTPDGTVKDRSLFTHHMSLEPVTCGPFCS
# notes: BRCA2, mouse, a.a; 2219-2285 (7.4 kDa in theory by the text); the His-Smt3 tag holds for the protein expressed alone (pSmt3); in the co-expression (pET-Duet) BRCA2 was untagged; also called mBRCA2 a.a; 2219–2285; source: E. coli BL21(DE3), purified (Ni-NTA, Ulp1 cleavage, size-exclusion chromatography, cation exchange); expressed alone or co-expressed untagged with His-Smt3-MEILB2 (a.a. 87–338)
# B3: MEILB2 α1 (a.a. 18–55; tag removed) (domain or fragment, mouse, UniProt Q9D4G2 18-55, looked up)
# chain: MESKEEFVKVRKKDLERLTTEVMQIRDFLPRILNGELL
# notes: MEILB2/HSF2BP, mouse, α1, a.a; 18-55; source: E. coli BL21 (DE3), purified (Ni-NTA, amylose, ion exchange, TEV cleavage, size-exclusion chromatography); not shown: MBP, N-terminal, cleaved
# Columns and labels:
# [1] = molecular target: MEILB2 α1+2 (tag removed) (mouse); test: SEC-MALS; Superdex 200 Increase 10/300 GL; 20 mM Tris (pH 8.0), 150 mM KCl, 2 mM DTT; samples at >1 mg/ml; MEILB2 fragments alone or as purified complexes with BRME1-MBD
# [2] = molecular target: MEILB2 α1 (a.a. 18–55; tag removed) (mouse) (UniProt Q9D4G2); test: as above
# [3] = molecular target: the molecule itself; test: SEC-MALS; individual proteins; 500 µg on Superdex 200 10/300 at 0.5 ml/min
# [4] = molecular target: the molecule itself; test: SEC-MALS; purified MEILB2 (a.a. 87–338)-BRCA2 (a.a. 2219–2285) heterocomplex; 500 µg on Superdex 200 10/300 at 0.5 ml/min
# [5] = molecular target: B1; test: as above; details: both partners purified
# [6] = molecular target: T1, MEILB2 C-terminus (a.a. 87–338); test: co-expression co-purification, SEC and SEC-MALS
# [7] = molecular target: the molecule itself; test: SEC-MALS; Superdex 200 Increase 10/300 GL; 20 mM Tris (pH 8.0), 150 mM KCl, 2 mM DTT; samples at >1 mg/ml; MEILB2 fragments alone or as purified complexes with BRME1-MBD
molecule,measurement,setting,value
"BRME1-MBD (a.a. 519–600), recombinant, His-tagged (from UniProt Q6DIA7 519-600) (domain or fragment)",stoichiometry N (BRME1-MBD per MEILB2 chain (2:2)),[1],1
same,stoichiometry N (BRME1-MBD per MEILB2 chain (2:2)),[2],1
B1,stoichiometry N,[3],2 chains in the oligomer
same,stoichiometry N,[4],4 chains in the oligomer
B2,stoichiometry N,[5],~0.5 BRCA2 per MEILB2 chain (4:2 MEILB2:BRCA2)
same,binding result,[6],binds
B3,stoichiometry N,[7],4 chains in the oligomer
